Series [1] has as its target T1, Pcryo_0638 (Psychrobacter cryohalolentis, UniProt Q1QD32).
T1 construct: full length; N-terminal His tag removed with rTEV; expressed in E. coli Rosetta2(DE3); dimer; residues Ala 5 to Asn 399 seen in crystal
T1 sequence (Q1QD32 1-400): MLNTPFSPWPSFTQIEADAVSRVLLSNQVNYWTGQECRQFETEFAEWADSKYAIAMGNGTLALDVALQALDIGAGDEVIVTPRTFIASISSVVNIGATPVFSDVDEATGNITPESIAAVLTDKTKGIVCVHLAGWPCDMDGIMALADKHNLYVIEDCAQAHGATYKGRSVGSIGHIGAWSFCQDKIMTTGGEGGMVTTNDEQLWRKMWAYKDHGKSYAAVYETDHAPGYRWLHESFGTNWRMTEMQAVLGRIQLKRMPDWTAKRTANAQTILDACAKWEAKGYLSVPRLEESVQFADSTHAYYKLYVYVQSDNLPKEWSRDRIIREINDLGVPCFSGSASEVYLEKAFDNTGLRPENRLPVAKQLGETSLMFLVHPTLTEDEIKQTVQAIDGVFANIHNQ
Put plainly: X-ray crystal structure, […] Å. The conditions noted are these: pH 8.0. Type of series: binding.

The target of series [2] is Pcryo_0637, N-acetyltransferase from Psychrobacter cryohalolentis K5T, C-terminally His-tagged form used for crystallization (Psychrobacter cryohalolentis K5T (ATCC BAA-1226)) (UniProt Q1QD33). Put plainly: crystal structure; hanging drop, room temperature, 23-26% 2-methyl-2,4-pentanediol, 100 mM HEPES pH 7.5, with CoA or acetyl-CoA and UDP or UDP-sugar ligands (four complexes); space group R3, one subunit in the asymmetric unit, trimer formed about the crystallographic triad; 1.3-1.55 Å.

Substrate in series [3]: CC(=O)SCCNC(=O)CCNC(=O)[C@H](O)C(C)(C)COP(=O)(O)OP(=O)(O)OC[C@H]1O[C@@H](n2cnc3c(N)ncnc32)[C@H](O)[C@@H]1OP(=O)(O)O
Put plainly: discontinuous HPLC assay of acetylated product, Michaelis-Menten fit. The note with it: 50 mM HEPPS pH 8.0, 8 mM UDP-2-acetamido-4-amino-2,4,6-trideoxy-D-glucose, structure with UDP solved on C-terminally tagged protein. The class given is biochemical, Psychrobacter cryohalolentis. An excerpt:
(§1) discontinuous HPLC assay of acetylated product, Michaelis-Menten fit on Pcryo_0637

Substrate in series [4]: CC(=O)N[C@H]1[C@@H](OP(=O)(O)OP(=O)(O)OC[C@H]2O[C@@H](n3ccc(=O)[nH]c3=O)[C@H](O)[C@@H]2O)O[C@H](C)[C@@H](N)[C@@H]1O
The description is as above. The class given is biochemical, Psychrobacter cryohalolentis. The conditions noted are these: 50 mM HEPPS pH 8.0, 1.5 mM acetyl-CoA, structure with CoA solved on C-terminally tagged protein.
From the text: as §1

Series [5] concerns the molecule itself. The experiment in a line: crystal structure; hanging drop, room temperature, 18-22% PEG 8000, 200 mM tetramethylammonium chloride, 100 mM HEPPS pH 8.0, with 1 mM PLP and 5 mM UDP-2-acetamido-4-amino-2,4,6-trideoxy-D-glucose; space group P1, one dimer in the asymmetric unit; 1.3 Å.
Substrate in series [6]: CC(=O)N[C@H]1[C@@H](OP(=O)(O)OP(=O)(O)OC[C@H]2O[C@@H](n3ccc(=O)[nH]c3=O)[C@H](O)[C@@H]2O)O[C@H](C)C(=O)[C@@H]1O
Put plainly: purified protein. The class given is biochemical, Psychrobacter cryohalolentis. The note with it: 50 mM HEPPS pH 8.0, 0.5 mM PLP, 40 mM sodium glutamate.

With `Cc1ncc(COP(=O)(O)O)c(CN)c1O` [PMP], the “X-ray crystal structure, 1.3 Å” value in series [1] (half-occupancy beside the external aldimine) is “a mixture of the external aldimine and PMP was subsequently built into the electron density”.

Consider `Cc1ncc(COP(=O)(O)O)c(C=O)c1O` [PLP], for which the “X-ray crystal structure, 1.3 Å” value in series [1] (covalent, external aldimine with the aminosugar product, half-occupancy) was “a mixture of the external aldimine and PMP was subsequently built into the electron density”.

“Pcryo_0637, N-acetyltransferase from Psychrobacter cryohalolentis K5T, C-terminally His-tagged form used for crystallization (from UniProt Q1QD33 1-219) (enzyme)”: the stoichiometry N (usually the number of molecules, sites or subunits per partner or assembly) in series [2] worked out at 3.

B1: Pcryo_0637 (Psychrobacter cryohalolentis K5) (protein)
chain: MSKVFAVYGASGCGRSLMPVANEQLRILEGDTDSQIVFIDDALDDNITVNGYTAMNYTKFKSIKNDDKFVLIAIANSSIRQKIADKLVKDGISLWTVQGMTTLIMDEVSIDAGAALSPFVTIAANVTIGKCFHANLYSYVEHDCIIGDYVTFAPRVSCNGNIHIHDHAYIGTGAVIKQGTPDKPLIIGKGAIVGMGAVVTKEVPAGAVVIGNPARLLNK
notes: full length; kinetics with N-terminal His tag removed by rTEV; crystals with noncleavable C-terminal tag LEHHHHHH; expressed in E. coli Rosetta2(DE3); trimer; domains Ser 2-Ser 93 and Leu 94-Ala 218
Turning to B1, in series [3], the Km (usually the concentration of substrate that gives half-maximal velocity) was 70 ± 8 µM; the kcat (usually the number of substrate molecules converted per active site and unit of time at saturation) was determined as 1900 ± 200 s⁻¹; the kcat/Km (as a rule, the second-order rate constant that governs catalysis at low substrate concentration) was 2.7e+07 ± 3e+06 M⁻¹ s⁻¹. For the same molecule, in series [4], the Km is 620 ± 50 µM, the kcat came out at 545 ± 40 s⁻¹ and the specificity constant (kcat/Km) is 880000 ± 90000 M⁻¹ s⁻¹.

B2: Pcryo_0638, PLP-dependent aminotransferase from Psychrobacter cryohalolentis K5T (enzyme)
chain: T1 sequence (Q1QD32 1-400)
notes: Pcryo_0638, aminotransferase encoded by gene 0638 of Psychrobacter cryohalolentis K5T (ATCC BAA-1226); electron density continuous from Ala 5 to Asn 399; also called protein encoded by the 0638 gene; Pyro_0638; source: E. coli Rosetta2(DE3), purified (Ni-NTA, tag removed with rTEV protease); not shown: polyhistidine tag, N-terminal, cleaved
For B2, the “stoichiometry N” value in series [5] was 2. For the same molecule, in series [6], the Km came out at 290 ± 40 µM, the kcat is 1.9 ± 0.2 s⁻¹ and the kcat/Km came out at 6600 ± 700 M⁻¹ s⁻¹.

The values above are taken from publication PMC8040287, “Characterization of two enzymes from Psychrobacter cryohalolentis that are required for the biosynthesis of an unusual diacetamido-D-sugar” (The Journal of Biological Chemistry, 2021).
